Results: patent publication US20240117018A1

What was measured:
Test in all cases: cell-based or functional assay
[1] = target: HIV-1 Env of pseudovirus 0260.v5.c36 (HIV-1)
[2] = target: HIV-1 Env of pseudovirus 1006_11_C3_1601 (HIV-1)
[3] = target: HIV-1 Env of pseudovirus 1012_11_TC21_3257 (HIV-1)
[4] = target: HIV-1 Env of pseudovirus 1056_10_TA11_1826 (HIV-1)
[5] = target: HIV-1 Env of pseudovirus 1394C9G1(Rev-) (HIV-1)
[6] = target: HIV-1 Env of pseudovirus 246F C1G (HIV-1)
[7] = target: HIV-1 Env of pseudovirus 249M B10 (HIV-1)
[8] = target: HIV-1 Env of pseudovirus 6240_08_TA5_4622 (HIV-1)
[9] = target: HIV-1 Env of pseudovirus 7030102001E5(Rev-) (HIV-1)
[10] = target: HIV-1 Env of pseudovirus CAP210.2.00.E8 (HIV-1)
[11] = target: HIV-1 Env of pseudovirus CNE21 (HIV-1)
[12] = target: HIV-1 Env of pseudovirus CNE5 (HIV-1)
[13] = target: HIV-1 Env of pseudovirus CNE58 (HIV-1)
[14] = target: HIV-1 Env of pseudovirus CNE8 (HIV-1)
[15] = target: HIV-1 Env of pseudovirus Ce0393_C3 (HIV-1)
[16] = target: HIV-1 Env of pseudovirus Ce1086_B2 (HIV-1)
[17] = target: HIV-1 Env of pseudovirus Ce1176_A3 (HIV-1)
[18] = target: HIV-1 Env of pseudovirus Ce703010054_2A2 (HIV-1)
[19] = target: HIV-1 Env of pseudovirus Ce704809221_1B3 (HIV-1)
[20] = target: HIV-1 Env of pseudovirus Du156.12 (HIV-1)
[21] = target: HIV-1 Env of pseudovirus Du172.17 (HIV-1)
[22] = target: HIV-1 Env of pseudovirus HIV-0013095-2.11 (HIV-1)
[23] = target: HIV-1 Env of pseudovirus HIV-001428-2.42 (HIV-1)
[24] = target: HIV-1 Env of pseudovirus HIV-16055-2.3 (HIV-1)
[25] = target: HIV-1 Env of pseudovirus HIV-16845-2.22 (HIV-1)
[26] = target: HIV-1 Env of pseudovirus Q23.17 (HIV-1)
[27] = target: HIV-1 Env of pseudovirus Q769.d22 (HIV-1)
[28] = target: HIV-1 Env of pseudovirus QH0692.42 (HIV-1)
[29] = target: HIV-1 Env of pseudovirus RHPA4259.7 (HIV-1)
[30] = target: HIV-1 Env of pseudovirus T250-4 (HIV-1)
[31] = target: HIV-1 Env of pseudovirus THRO4156.18 (HIV-1)
[32] = target: HIV-1 Env of pseudovirus TRJO4551.58 (HIV-1)
[33] = target: HIV-1 Env of pseudovirus WEAU_d15_410_787 (HIV-1)
[34] = target: HIV-1 Env of pseudovirus ZM109F.PB4 (HIV-1)
[35] = target: HIV-1 Env of pseudovirus ZM214M.PL15 (HIV-1)
[36] = target: HIV-1 Env of pseudovirus ZM249M.PL1 (HIV-1)

For PGT151 (antibody), the neutralization IC50 [1] was 0.427 µg/mL, the neutralization IC80 [1] was greater than 50 µg/mL and the neutralization IC50 [2] was 2.89 µg/mL. The neutralization IC80 [2] was greater than 50 µg/mL, the neutralization IC50 [3] was greater than 50 µg/mL and the neutralization IC80 [3] was greater than 50 µg/mL. The neutralization IC50 [4] was 0.008 µg/mL, the neutralization IC80 [4] was 0.048 µg/mL and the neutralization IC50 [5] was 0.022 µg/mL. For the same substance, the neutralization IC80 [5] was 0.733 µg/mL, the neutralization IC50 [6] was greater than 50 µg/mL and the neutralization IC80 [6] was greater than 50 µg/mL. It also gave a neutralization IC50 [7] of 0.007 µg/mL, a neutralization IC80 [7] of 0.023 µg/mL and a neutralization IC50 [8] of 0.046 µg/mL. For the same substance, the neutralization IC80 [8] was 0.42 µg/mL, the neutralization IC50 [9] was 0.001 µg/mL and the neutralization IC80 [9] was 0.011 µg/mL. For the same substance, the neutralization IC50 [10] was 0.01 µg/mL, the neutralization IC80 [10] was 0.208 µg/mL and the neutralization IC50 [11] was 0.004 µg/mL. It also gave a neutralization IC80 [11] of 0.012 µg/mL, an IC50 (Titer in TZM.bl cells) [12] greater than 50 µg/mL and an IC80 (Titer in TZM.bl cells) [12] greater than 50 µg/mL. For the same substance, the neutralization IC50 [13] was 0.004 µg/mL, the neutralization IC80 [13] was 0.016 µg/mL and the IC50 (Titer in TZM.bl cells) [14] was greater than 50 µg/mL. The IC80 (Titer in TZM.bl cells) [14] was greater than 50 µg/mL, the neutralization IC50 [15] was greater than 50 µg/mL and the neutralization IC80 [15] was greater than 50 µg/mL. It also gave a neutralization IC50 [16] of 2.65 µg/mL, a neutralization IC80 [16] greater than 50 µg/mL and a neutralization IC50 [17] of 0.006 µg/mL. For the same substance, the neutralization IC80 [17] was 0.018 µg/mL, the neutralization IC50 [18] was 0.013 µg/mL and the neutralization IC80 [18] was 0.075 µg/mL. The neutralization IC50 [19] was greater than 50 µg/mL, the neutralization IC80 [19] was greater than 50 µg/mL and the neutralization IC50 [20] was 0.005 µg/mL. It also gave a neutralization IC80 [20] of 0.023 µg/mL, a neutralization IC50 [21] of 0.003 µg/mL and a neutralization IC80 [21] of 0.013 µg/mL. For the same substance, the neutralization IC50 [22] was greater than 50 µg/mL, the neutralization IC80 [22] was greater than 50 µg/mL and the neutralization IC50 [23] was 0.027 µg/mL. The neutralization IC80 [23] was greater than 50 µg/mL, the neutralization IC50 [24] was 0.143 µg/mL and the neutralization IC80 [24] was greater than 50 µg/mL. For the same substance, the neutralization IC50 [25] was greater than 50 µg/mL, the neutralization IC80 [25] was greater than 50 µg/mL and the neutralization IC50 [26] was 0.007 µg/mL. For the same substance, the neutralization IC80 [26] was 0.045 µg/mL, the neutralization IC50 [27] was greater than 50 µg/mL and the neutralization IC80 [27] was greater than 50 µg/mL. The neutralization IC50 [28] was 0.029 µg/mL, the neutralization IC80 [28] was 0.522 µg/mL and the neutralization IC50 [29] was 0.006 µg/mL. For the same substance, the neutralization IC80 [29] was 0.033 µg/mL, the neutralization IC50 [30] was 0.005 µg/mL and the neutralization IC80 [30] was 0.014 µg/mL. It also gave a neutralization IC50 [31] greater than 50 µg/mL, a neutralization IC80 [31] greater than 50 µg/mL and a neutralization IC50 [32] of 0.496 µg/mL. It also gave a neutralization IC80 [32] of 4.22 µg/mL, a neutralization IC50 [33] of 0.01 µg/mL and a neutralization IC80 [33] greater than 50 µg/mL. It also gave a neutralization IC50 [34] of 0.609 µg/mL, a neutralization IC80 [34] greater than 50 µg/mL and a neutralization IC50 [35] of 0.008 µg/mL. It also gave a neutralization IC80 [35] of 0.045 µg/mL, a neutralization IC50 [36] of 0.004 µg/mL and a neutralization IC80 [36] of 0.015 µg/mL.
